Experimental data as given in PMC7794309.

Settings: glycan lost

Substance	other: support of viral entry, other: percent increase over WT	other: viral replication
ACE2: N53Q	no change	–
ACE2: N90Q	60%	increases
ACE2: N103Q	no change	–
ACE2: N322Q	no change	–
ACE2: N432Q	no change	–
ACE2: N546Q	68%	no change
ACE2: N690Q	no change	–
